This assay addresses ornithine decarboxylase (ODC) (UniProt P11926). Put plainly: cell-based or functional assay.

Chain of ornithine decarboxylase (ODC) (P11926 whole entry): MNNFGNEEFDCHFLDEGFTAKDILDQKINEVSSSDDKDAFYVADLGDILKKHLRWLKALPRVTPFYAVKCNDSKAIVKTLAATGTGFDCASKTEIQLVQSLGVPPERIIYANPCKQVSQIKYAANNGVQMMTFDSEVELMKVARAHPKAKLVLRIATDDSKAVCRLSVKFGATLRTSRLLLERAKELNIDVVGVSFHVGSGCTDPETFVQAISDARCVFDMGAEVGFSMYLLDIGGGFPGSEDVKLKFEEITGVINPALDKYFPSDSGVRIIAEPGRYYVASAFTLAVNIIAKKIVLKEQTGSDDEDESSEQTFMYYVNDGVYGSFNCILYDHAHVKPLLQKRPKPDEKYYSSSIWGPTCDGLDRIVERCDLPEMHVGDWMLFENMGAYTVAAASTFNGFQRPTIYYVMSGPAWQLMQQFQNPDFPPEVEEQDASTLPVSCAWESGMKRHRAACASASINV

Regarding “QEP (glutamine-glutamic acid-proline tripeptide)”, the decrease in activity of purified ODC (released CO2) after 1 h with 100 µM peptide was 40%.

The record behind these values is patent US20170042969A1.
